The experiment addresses His-tagged encapsulin from Thermotoga maritima (Thermotoga maritima). Nature of the experiment: co-purification.

“ESig-tagged mini-Singlet Oxygen Generator (miniSOG)”: the stoichiometry N (mSOG molecules per nanocompartment) is 7.

(Values after publication doi:10.1101/2020.06.06.138305.)
